# Results: the supplement of paper PMC12667976
# ± gives the standard error.
# B1: library; numbered along this chain (parent)
# chain: MATDAALRRLLRLHRTEIAVAVDSAFPLLHALADHDVVPEDKFQETLHLKEKEGCPQAFHALLSWLLTQDSTAILDFWRVLFKDYNLERYGRLQPILDSFPKDVDLSQPRKGRKPPAVPKALVPPPRLPTKRKASEEARAAAPAALTPRGTASPGSQLKAKPPKKPESSAEQQRLPLGNGIQTMSASVQRAVAMSSGDVPGARGAVEGILIQQVFESGGSKKCIQVGGEFYTPSKFEDSGSGKNKARSSSGPKPLVRAKGAQGAAPGGGEARLGQQGSVPAPLALPSDPQLHQKNEDECAVCRDGGELICCDGCPRAFHLACLSPPLREIPSGTWRCSSCLQATVQEVQPRAEEPRPQEPPVETPLPPGLRSAGEEVRGPPGEPLAGMDTTLVYKHLPAPPSAAPLPGLDSSALHPLLCVGPEGQQNLAPGARCGVCGDGTDVLRCTHCAAAFHWRCHFPAGTSRPGTGLRCRSCSGDVTPAPVEGVLAPSPARLAPGPAKDDTASHEPALHRDDLESLLSEHTFDGILQWAIQSMARPAAPFPS
# Variants of: B1
# Assay: AIRE transcriptional activation functional score (insulin promoter-GFP; nonsense median 0, synonymous median 1) (normalised score); higher = higher AIRE activity (more reporter activation)
# Settings: with insulin promoter-GFP reporter in HEK293
# Method: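 Deep mutational scan of full-length human AIRE (codon-optimized cDNA, DT-POPCode NNN libraries over three regions) integrated at a Bxb1 landing pad in HEK293 cells carrying an insulin core promoter-GFP reporter at a Flp-In site. Cells were sorted for the top 10% GFP about 14 days after transfection. Variant frequency log-ratios (select vs non-select, TileSeq) were rescaled so that the nonsense median is 0 and the synonymous median is 1, then averaged over biological replicates.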
row,Variant,AIRE transcriptional activation functional score
1,P357N,1.32 ± 0.045
2,P357Q,1.06 ± 0.076
3,P357G,0.884 ± 0.26
4,C340W,0.727 ± 0.019
5,R15F,0.0396 ± 0.61
6,K165I,2.29 ± 0.49
7,K165C,0.37 ± 0.17
8,K165D,0.206 ± 0.069
9,A373H,1.23 ± 0.066
10,H30Y,1.23 ± 0.46
11,P252C,0.763 ± 0.089
12,P252F,0.977 ± 0.083
13,H458T,1.16 ± 0.05
14,K120C,1.2 ± 0.21
15,K120Y,1.34 ± 0.37
16,I211F,0.181 ± 0.26
17,S71W,-0.0187 ± 0.13
18,A58S,-0.0331 ± 0.37
19,A58C,-0.141 ± 0.25
20,Q262V,0.657 ± 0.24
21,P460D,0.0955 ± 0.17
22,P460K,0.952 ± 0.08
23,E53I,1.49 ± 0.51
24,E53Q,0.948 ± 0.95

row,Variant,AIRE transcriptional activation functional score
1,P384Q,1.01 ± 0.083
2,A343S,0.938 ± 0.23
3,H523N,1.28 ± 0.23
4,H523L,0.222 ± 0.077
5,N295V,1.09 ± 0.33
6,N295Q,0.995 ± 0.28
7,A271E,1.1 ± 0.12
8,S107R,1.25 ± 0.7
9,A140R,1.14 ± 0.49
10,L11I,0.208 ± 0.44
11,P124I,1.71 ± 0.21
12,E376Q,1.62 ± 0.057
13,C449I,-0.224 ± 0.16
14,K253V,0.867 ± 0.22
15,K161V,1.11 ± 0.33
16,T447W,1.32 ± 0.029
17,Q530S,0.546 ± 0.23
18,G204F,-0.0648 ± 0.27
19,P166A,1.16 ± 0.69
20,P542K,0.249 ± 0.14
21,K52R,0.664 ± 0.35
22,K52A,1.01 ± 0.14
23,F318T,1.31 ± 0.28
24,L327I,0.913 ± 0.27

row,Variant,AIRE transcriptional activation functional score
1,L327G,0.535 ± 0.21
2,P326S,0.881 ± 0.29
3,P326M,-0.264 ± 0.19
4,G305M,0.666 ± 0.1
5,G305R,0.945 ± 0.35
6,M194C,0.639 ± 0.12
7,G242V,1.04 ± 0.1
8,C337F,0.845 ± 0.028
9,E229R,0.148 ± 0.3
10,P483L,0.603 ± 0.34
11,F59N,-0.0761 ± 0.11
12,F59P,0.0711 ± 0.28
13,A461L,1.28 ± 0.14
14,R351S,1.01 ± 0.3
15,V256Y,1.39 ± 0.17
16,V256G,1.05 ± 0.24
17,R336E,0.646 ± 0.25
18,S474F,1.12 ± 0.067
19,A152T,1.32 ± 0.64
20,W65S,0.269 ± 0.64
21,Q290C,0.819 ± 0.11
22,A21E,0.657 ± 0.37
23,N86T,-0.124 ± 0.51
24,E45R,-0.0981 ± 0.15

row,Variant,AIRE transcriptional activation functional score
1,E45M,-1.43 ± 0.084
2,E45L,0.233 ± 0.38
3,E45D,0.278 ± 0.12
4,A145Y,1.66 ± 0.23
5,D478N,0.709 ± 0.056
6,D478K,0.926 ± 0.088
7,D478W,0.544 ± 0.033
8,V22T,-0.0112 ± 0.23
9,E375N,1.89 ± 0.1
10,Y231A,0.676 ± 0.27
11,P280S,1.1 ± 0.41
12,P400L,0.451 ± 0.31
13,L13P,0.275 ± 0.3
14,A265P,0.806 ± 0.31
15,A265V,1.11 ± 0.14
16,P416N,1.21 ± 0.23
17,S372K,1.48 ± 0.092
18,R303M,1.28 ± 0.062
19,R303W,1.02 ± 0.018
20,K221Y,0.0318 ± 0.63
21,L470Q,1.11 ± 0.13
22,P154Q,-0.0735 ± 0.26
23,P154M,-0.062 ± 0.16
24,T504V,0.558 ± 0.048

row,Variant,AIRE transcriptional activation functional score
1,T504Q,1.7 ± 0.059
2,R132Q,0.308 ± 0.29
3,E329H,1.45 ± 0.053
4,C310Y,0.993 ± 0.13
5,C472N,0.0317 ± 0.94
6,C322A,1.16 ± 0.17
7,V20R,-0.283 ± 0.69
8,G421S,0.74 ± 0.44
9,T68E,-2.1 ± 0.14
10,V420G,0.846 ± 0.31
11,T344G,1.16 ± 0.29
12,D410P,0.93 ± 0.16
13,D410Y,1.27 ± 0.1
14,F459W,0.395 ± 0.083
15,A300F,1.57 ± 0.073
16,G408D,1.2 ± 0.21
17,G54Y,0.671 ± 0.86
18,C475G,0.304 ± 0.28
19,T151M,0.378 ± 0.04
20,Q346R,1.03 ± 0.2
21,Q346V,0.378 ± 0.25
22,L320Y,1.09 ± 0.14
23,L320D,1.14 ± 0.066
24,R110L,1.44 ± 0.48

row,Variant,AIRE transcriptional activation functional score
1,D304R,0.879 ± 0.43
2,A25D,0.297 ± 0.072
3,L495Q,0.974 ± 0.1
4,A160T,0.43 ± 0.44
5,P254V,1.27 ± 0.26
6,P254H,0.946 ± 0.19
7,L175M,1.05 ± 0.1
8,S217Y,0.669 ± 0.09
9,E136L,0.669 ± 0.26
10,E136K,-0.163 ± 0.49
11,F26H,-0.678 ± 0.15
12,F26L,-0.13 ± 0.44
13,F26E,-0.35 ± 0.31
14,L385D,-0.182 ± 0.081
15,L385I,0.603 ± 0.3
16,A205R,0.318 ± 0.23
17,Q225I,0.248 ± 0.23
18,R149I,0.113 ± 0.67
19,A450N,1.35 ± 0.14
20,A450D,1.48 ± 0.055
21,R9T,0.253 ± 0.34
22,G180S,0.929 ± 0.73
23,L323E,1.47 ± 0.11
24,P115N,1.02 ± 0.11

row,Variant,AIRE transcriptional activation functional score
1,P286Q,1.07 ± 0.083
2,T232F,-0.0868 ± 0.094
3,K131E,0.0987 ± 0.29
4,S99R,0.357 ± 0.79
5,S278E,0.763 ± 0.2
6,L97Y,2.69 ± 0.14
7,S195M,0.346 ± 0.035
8,S195A,1.31 ± 0.2
9,L75K,0.732 ± 0.062
10,L75M,0.71 ± 0.18
11,L32Y,0.28 ± 0.36
12,V487M,0.568 ± 0.19
13,P481S,0.91 ± 0.43
14,L128E,0.0699 ± 0.22
15,G440W,0.996 ± 0.03
16,A258Q,0.586 ± 0.085
17,Q173P,1.05 ± 0.46
18,P126S,0.0633 ± 0.23
19,R494T,0.134 ± 0.14
20,R190S,0.821 ± 0.34
21,S24E,0.661 ± 0.12
22,D198A,1.03 ± 0.37
23,T390K,1.1 ± 0.15
